Publication doi:10.1101/2022.12.14.520423

Target: T1, CLAMP (CLAMPmel) (Drosophila melanogaster, UniProt Q9V9N4 1-561)
T1 sequence: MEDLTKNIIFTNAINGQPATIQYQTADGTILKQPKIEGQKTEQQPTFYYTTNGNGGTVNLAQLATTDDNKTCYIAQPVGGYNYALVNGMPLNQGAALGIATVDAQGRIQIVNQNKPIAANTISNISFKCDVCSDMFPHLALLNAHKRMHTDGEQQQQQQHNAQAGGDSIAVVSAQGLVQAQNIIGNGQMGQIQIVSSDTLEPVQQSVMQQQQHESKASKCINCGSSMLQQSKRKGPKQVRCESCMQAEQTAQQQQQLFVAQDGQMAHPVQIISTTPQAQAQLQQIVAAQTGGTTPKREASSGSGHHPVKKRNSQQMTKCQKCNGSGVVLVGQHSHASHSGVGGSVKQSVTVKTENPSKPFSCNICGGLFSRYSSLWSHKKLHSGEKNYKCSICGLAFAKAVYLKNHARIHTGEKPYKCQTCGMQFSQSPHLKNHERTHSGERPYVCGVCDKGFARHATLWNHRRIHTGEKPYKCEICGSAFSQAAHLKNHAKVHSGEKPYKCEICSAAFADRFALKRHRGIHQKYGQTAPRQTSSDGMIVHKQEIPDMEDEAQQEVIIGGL
Assay: EMSA

B1: Dvir 2 (dsDNA)
DNA 1: TACCAAAAACTCAAAAAGACGAGCGAGTGAAAACATATTTCCATCTCGCTCACATACTAC
DNA 2: GTAGTATGTGAGCGAGATGGAAATATGTTTTCACTCGCTCGTCTTTTTGAGTTTTTGGTA
- binding result: binds
